Measured values: patent publication US20210188972A1 (A AND G PHARMACEUTICAL, published 2021)

Experiments:
[1] = biological target: T1, Human PTGFRN-ECD (extracellular domain; amino-acid 26 to amino-acid Y at 832), His-tag protein (human, UniProt Q9P2B2 26-832); experiment: BLI, Octet Red96, mAb on AMC sensor, PTGFRN-ECD 100 nM as analyte
T1 construct: range 26-832; Expressed in Hek-293 cells, purified on a nickel column; also called recombinant PTGFRN; not shown: His-tag
T1 sequence (looked up): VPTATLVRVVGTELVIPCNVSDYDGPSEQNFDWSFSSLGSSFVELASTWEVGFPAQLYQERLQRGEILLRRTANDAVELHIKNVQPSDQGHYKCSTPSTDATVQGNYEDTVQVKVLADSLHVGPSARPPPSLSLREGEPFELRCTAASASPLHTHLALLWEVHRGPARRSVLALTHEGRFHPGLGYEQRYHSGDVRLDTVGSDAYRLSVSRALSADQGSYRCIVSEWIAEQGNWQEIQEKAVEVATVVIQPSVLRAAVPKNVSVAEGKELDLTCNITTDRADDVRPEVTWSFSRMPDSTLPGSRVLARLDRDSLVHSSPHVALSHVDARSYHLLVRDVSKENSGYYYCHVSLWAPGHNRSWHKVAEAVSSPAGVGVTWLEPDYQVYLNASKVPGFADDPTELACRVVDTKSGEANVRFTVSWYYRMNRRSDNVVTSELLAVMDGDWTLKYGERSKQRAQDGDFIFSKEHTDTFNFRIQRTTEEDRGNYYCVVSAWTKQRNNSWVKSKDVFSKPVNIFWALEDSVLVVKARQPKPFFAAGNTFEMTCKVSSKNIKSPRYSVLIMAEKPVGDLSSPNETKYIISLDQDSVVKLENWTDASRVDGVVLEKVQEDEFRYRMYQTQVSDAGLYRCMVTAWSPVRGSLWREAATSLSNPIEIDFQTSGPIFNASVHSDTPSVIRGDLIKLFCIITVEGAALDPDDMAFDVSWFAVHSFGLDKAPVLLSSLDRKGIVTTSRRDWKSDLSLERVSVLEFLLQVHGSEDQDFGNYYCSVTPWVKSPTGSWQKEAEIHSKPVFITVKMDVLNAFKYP

[2] = biological target: T1, Human PTGFRN-ECD (extracellular domain; …); experiment: Octet Red96 pairing (binning matrix) on PTGFRN-ECD; capture Ab (1st loading Ab): 7B4
[3] = biological target: T1, Human PTGFRN-ECD (extracellular domain; …); experiment: Octet Red96 pairing (binning matrix) on PTGFRN-ECD; capture Ab (1st loading Ab): 4F4
[4] = biological target: T1, Human PTGFRN-ECD (extracellular domain; …); experiment: Octet Red96 pairing (binning matrix) on PTGFRN-ECD; capture Ab (1st loading Ab): 10E6
[5] = biological target: T1, Human PTGFRN-ECD (extracellular domain; …); experiment: Octet Red96 pairing (binning matrix) on PTGFRN-ECD; capture Ab (1st loading Ab): 6F6
[6] = biological target: T1, Human PTGFRN-ECD (extracellular domain; …); experiment: Octet Red96 pairing (binning matrix) on PTGFRN-ECD; capture Ab (1st loading Ab): 9A9
[7] = biological target: T1, Human PTGFRN-ECD (extracellular domain; …); experiment: Octet Red96 pairing (binning matrix) on PTGFRN-ECD; capture Ab (1st loading Ab): 33B7
[8] = biological target: T1, Human PTGFRN-ECD (extracellular domain; …); experiment: Octet Red96 pairing (binning matrix) on PTGFRN-ECD; capture Ab (1st loading Ab): 1E2
[9] = biological target: T1, Human PTGFRN-ECD (extracellular domain; …); experiment: Octet Red96 pairing (binning matrix) on PTGFRN-ECD; capture Ab (1st loading Ab): 9G8
[10] = biological target: T1, Human PTGFRN-ECD (extracellular domain; …); experiment: Octet Red96 pairing (binning matrix) on PTGFRN-ECD; capture Ab (1st loading Ab): 9D8
[11] = biological target: T1, Human PTGFRN-ECD (extracellular domain; …); experiment: Octet Red96 pairing (binning matrix) on PTGFRN-ECD; capture Ab (1st loading Ab): 10D9
[12] = biological target: T1, Human PTGFRN-ECD (extracellular domain; …); experiment: Octet Red96 pairing (binning matrix) on PTGFRN-ECD; capture Ab (1st loading Ab): 2B12

Binder | Kd [1] | Response [1] | koff [1] | kon [1] | Octet pairing response [2] | Octet pairing response [3] | Octet pairing response [4] | Octet pairing response [5] | Octet pairing response [6] | Octet pairing response [7] | Octet pairing response [8] | Octet pairing response [9] | Octet pairing response [10] | Octet pairing response [11] | Octet pairing response [12]
9A9 (antibody, V domains shown, Mouse hybridoma mAb) VH: QVQLQQSGPELVKPGASVKLSCKASGYTFTTYDINWVKQRPGQGLEWIGWLYPRDGNTNYNEKFKGKASLTVDTSSSTAYMELHSLTSEDSAVYFCARDYYGSTYGYFDYWGQGTTLTVSS VL: DIQMTQSPASLSASVGGTVTITCRASEKIYSYLAWYQQKQGKSPQLLVYDANTLAQGVPSRFSGSGSGTQFSLKINSLQPEDFGSYYCQHHYVTPLTFGAGTKLALK | < 1 pM | 0.319 | < 1e-07 s⁻¹ | 151000 M⁻¹ s⁻¹ | 0.162 | – | – | – | – | – | – | – | – | – | –
33B7 (antibody, V domains shown, Murine hybridoma monoclonal IgG (ATCC PTA-124281); also called AG02; AGO2) VH: DVQLQESGPGLVKPSQSLSLTCSVTGCSITSGYYWNWIRQFPGNKLEWMGYISHDGNNNYSPSLKNRISITRDTSKNQFFLKLNSVTTEDTATYYCARGFYYYGYFGYWGQGTTLTVSS VL: DIVMSQSPSSLAVSVGEKVTMSCKSSQSLLYSTNQKNYLAWYQQKPGQSPKPLIYWASTRESGVPDRFTGSGSGTDFTLTISSVKAEDLAVYYCQQYYSYRTFGGGTKLEIKR | 3090 pM | 0.245 | 0.000602 s⁻¹ | 195000 M⁻¹ s⁻¹ | – | 0.125 | – | – | – | – | – | – | – | – | –
2B12 (antibody, V domains shown, Mouse hybridoma mAb) VH: QVQLQQPGAELVKPGASVKMSCKASGYTFTSYWITWVKQGPGQGLEWIGDIYPGSGNTNYNEKFKSKATLTVDTSSSTAYMQLSSLTSEDSAVYYCARFFILTSYYFDYWGQGTTLTVSS VL: GIVMTQSQKFMSTTVGDRVSITCKASQNVGTAVAWFQQKPGQSPKLLIYLASNRYTGVPDRFTGSGSGTDFTLTISNMQSEDLADYFCQQYSNYPLTFGAGTKLELK | < 1 pM | 0.272 | < 1e-07 s⁻¹ | 48500 M⁻¹ s⁻¹ | 0.0818 | – | 0.157 | 0.13 | 0.0744 | 0.132 | 0.27 | 0.0926 | 0.0857 | 0.111 | –
10D9 (antibody, V domains shown, Mouse hybridoma mAb) VH: DVQLQESGPGLVKPSQSLSLTCSVTGCSITSGYDWNWIRQFPGNKLEWMGYINYDGNSNYIPSLKNRVSITRDTSKNQFFLKLNSVTTEDTATYYCARSDGYYWYFDVWGTGTTVTVSS VL: DIKMTQSPSSMYASLGERVTITCKASQDIKSYLSWYQQKPWKSPKTLIYYATSLADGVPSRFSASGSGQDYSLTISSLESDDTATYYCLQHAERPLTFGAGTKLELK | < 1 pM | 0.342 | < 1e-07 s⁻¹ | 85600 M⁻¹ s⁻¹ | 0.1 | – | 0.329 | 0.215 | 0.226 | 0.236 | 0.269 | 0.142 | 0.186 | – | 0.18
6F6 (antibody, V domains shown, Mouse hybridoma mAb) VH: QVQLQQSGAELVKPGASVKVSCKASGYTFTTYWMHWVKQRPGQGLEWIGRIHPSDSDTNYNQKFKGKATLTLDKSSSTAYMQLSSLTSEDSAVYYCAMSLYYTMDYWGQGTSVTVSS VL: DIQMTQSPSSLSASLGGKVTITCKASQDIKKYIAWYQHKPGKGPRLLIHYTSTLQPGIPSRFSGSGSGRDYSFSISNLEPEDIATYYCLQYDNLLYTFGGGTKLEIK | < 1 pM | 0.335 | < 1e-07 s⁻¹ | 69100 M⁻¹ s⁻¹ | 0.103 | 0.131 | 0.255 | – | 0.222 | 0.126 | 0.232 | 0.146 | 0.165 | 0.191 | 0.124
1E2 (antibody, V domains shown, Mouse hybridoma mAb) VH: DVQLQESGPGLVKPSQSLSLTCSVTDYSITSGYYWNWIRQFPGNKLEWMGYISYDGSNNYNPSLKNRLSITRDTSKNQFFLKLNSVTPEDTATYYCARGWDYCFDYWGQGATLTVSS VL: DIQMTQTTSSLSASLGDRVTISCSASQGISNYLNWYQQKPDGTVKLLIYYTSGLHSGVPSRFSGSGSGTDYSLTISNLEPEDIATYYCQQYSQLPWTFGGGTKLEIK | < 1 pM | 0.41 | < 1e-07 s⁻¹ | 63800 M⁻¹ s⁻¹ | 0.157 | – | 0.306 | – | 0.27 | 0.185 | – | 0.215 | 0.184 | 0.24 | 0.23
3E10 (antibody, V domains shown) VH: EVHLVESGGDLVKPGGSLKLSCAASGFTFSSYGMSWVRQTPDKRLEWVASISSGGSHTYYPDRVKGRFTISRDNAKNTLYLQMSSLKSEDTAMYYCARHPSYYGSSLYCFDYWGQGTTLTVSS VL: DIQMTQTTSSLSASLGDRVTISCRASQDISNYLNWYQQKPDGTVKLLIYYTSRLHSGVPSRFSGSGSGTDFSLTISNLEQEDVATYFCQQGSTLPWTFGGGTKLEIK | < 1 pM | 0.472 | < 1e-07 s⁻¹ | 120000 M⁻¹ s⁻¹ | 0.12 | 0.112 | 0.305 | 0.0759 | 0.224 | 0.252 | – | 0.124 | 0.199 | 0.219 | 0.251
